Assay results reported in patent publication US5296352.

Target: recombinant hirudin variant HV1 (Hirudo medicinalis)

| Substance | extent of digestion (cleavage of rHV1) |
| --- | --- |
| lysyl endopeptidase (enzyme) | 100% |
| Staphylococcus aureus strain V8 protease (from UniProt P0C1U8) (enzyme) | 97% |
